These results are taken from patent publication US20060292657A1, “Phex substrates and methods using same” (priority 2003, published 2006).

Common to all, as to assay: Kinetic parameters for hydrolysis of internally quenched fluorogenic peptides by secPHEX
Assay type in all cases: biochemical, human
Conditions in all cases: other: 37° C., 10 mM Bis-Tris buffer pH 5.5, 150 mM NaCl

Substrate in data set [1]: CC(C)C[C@H](NC(=O)[C@H](Cc1c[nH]c2ccccc12)NC(=O)[C@H](C)NC(=O)c1ccccc1N)C(=O)N[C@@H](CC(=O)O)C(=O)N[C@@H](CO)C(=O)NCC(=O)N[C@H](C(=O)N[C@@H](CCC(N)=O)C(=O)NCCNc1ccc([N+](=O)[O-])cc1[N+](=O)[O-])C(C)C
The procedure: (§1) The human recombinant secPHEX was obtained following the procedure previously described (17, WO 00/50580). Purified secPHEX concentration was determined using the Bradford method (DC protein assay kit; Bio-Rad, Mississauga, ON, Canada). Membrane-bound recombinant human PHEX was expressed in LLC-PK1 cells (17, (WO 00/50580)) and membranes were prepared essentially as described by Guo et al. (34). Briefly, transfected cells resuspended in lysis buffer (150 mM NaCl, 20 mM Tris.HCl, pH 7.6) were disrupted by sonication. Cell debris were removed by centrifugation at 300 g for 15 min at 4 °C. Membranes were collected by centrifugation at 30,000 g for 50 min and solubilized for 2h with 1% n-dodecyl-β-D-maltoside in lysis buffer. Insoluble material was pelleted by centrifugation at 10,000 g for 15 min and protein concentrations of the supernatant determined using the Bradford method described above. PHEX amounts were evaluated by immunoblotting as described previously (17). NEP expression and purification were performed as described previously (36).
(§2) The hydrolysis of the IQFPs, at 37° C., in 10 mM Bit-Tris buffer pH 5.5 (0.35 to 1.0 ml final volume) containing 150 mM NaCl, was continuously followed measuring the fluorescence at γem=420 nm and γex=320 nm in a Hitachi F-2000™ spectrofluorometer. The cuvefte containing the buffer and the substrate was placed in a thermostatically controlled cell compartment for 5 min before the addition of the enzyme and the increase in fluorescence with time was continuously recorded for 5-10 min. The enzyme concentration for initial rate determination was chosen at a level intended to hydrolyze less than 5% of the substrate present. The slope was converted into micromoles of substrate hydrolyzed per min based on a calibration curve obtained from complete hydrolysis of each peptide. The inner-filter effect was corrected using an empirical equation as previously described (43). The kinetic parameters Km and kcat were calculated by the non-linear regression data analysis Grafit program (42). The kcat/Km values were calculated as the ratio of these two determined parameters. The apparent second order rate constant kcat/Km (*kIt/Km) was determined under pseudo first-order conditions, where [S]<<Km. These determinations were performed in two different substrate concentrations and the errors were less than 5% for any obtained value.
(§3) To determine the position of cleavage in peptides of the IQFPs combinatorial libraries, the products resulting from hydrolysis by secPHEX were submitted to N-terminal amino acid sequencing in a PPSQ-23protein sequencer (Shimadzu Tokyo, Japan). The scissile bonds in the IQFPs secPHEX substrates derived from PTHrP107-139, FGF-23and MEPE were determined by amino acid sequencing and by MALDI-TOF™ mass spectrometry (TofSpec-E™, Micromass, Manchester, U.K.) after isolation of the fragments resulting from the hydrolysis by secPHEX by analytical HPLC.
(§4) The assays were performed at 37° C., in 10 mM Bis-Tris buffer pH 5.5, containing 150 mM NaCl. Measurements were made as described under the heading “Experimental Procedures” above. Cleavage sites are indicated as arrows (↓). The standard deviations of the kinetic constants were less than 5%.
(§5) The assays were performed at 37° C., in 10 mM Bis-Tris buffer pH 5.5, containing 150 mM NaCl. Measurements were made as described under the heading “Experimental Procedures” above. Cleavage sites are indicated by arrows (↓). The standard deviations of the kinetic constants were less than 5%.
(§6) The assays were. performed at 37° C., in 10 mM Bis-Tris buffer pH 5.5, containing 150 mM NaCl. Measurements were made as described under the heading “Experimental Procedures” above. Cleavage sites are indicated by arrows (↓). The standard deviations of the kinetic constants were less than 5%.
(§7) The assays were performed at 37° C., in 10 mM Bis-Tris buffer pH 5.5, containing 150 mM NaCl. Measurements were made as described under “Experimental Procedures”. […]

Substrate in data set [2]: CC(C)C[C@H](NC(=O)[C@H](Cc1c[nH]cn1)NC(=O)[C@@H](NC(=O)c1ccccc1N)[C@@H](C)O)C(=O)N[C@@H](CC(=O)O)C(=O)N[C@H](C(=O)N[C@@H](CCCCN)C(=O)N[C@@H](CCCCN)C(=O)N[C@@H](CCC(N)=O)C(=O)NCCNc1ccc([N+](=O)[O-])cc1[N+](=O)[O-])[C@@H](C)O
On the procedure:
as §1, §2, §3, §4, §5, §6, §7

Substrate in data set [3]: C[C@H](NC(=O)[C@H](C)NC(=O)[C@H](CC(=O)O)NC(=O)[C@H](CO)NC(=O)[C@H](CO)NC(=O)CNC(=O)c1ccccc1N)C(=O)N[C@@H](CCC(=O)O)C(=O)N[C@@H](CCC(N)=O)C(=O)NCCNc1ccc([N+](=O)[O-])cc1[N+](=O)[O-]
On the procedure: as §1, §2, §3, §4, §5, §6, §7

Substrate in data set [4]: C[C@H](NC(=O)[C@H](CO)NC(=O)[C@H](CCCNC(=N)N)NC(=O)[C@@H](NC(=O)[C@H](Cc1c[nH]cn1)NC(=O)[C@H](CCCNC(=N)N)NC(=O)[C@H](CCCNC(=N)N)NC(=O)c1ccccc1N)[C@@H](C)O)C(=O)N[C@@H](CCC(=O)O)C(=O)N[C@@H](CC(=O)O)C(=O)N[C@@H](CC(=O)O)C(=O)N[C@@H](CO)C(=O)N[C@@H](CCC(=O)O)C(=O)N[C@@H](CCCNC(=N)N)C(=O)N[C@@H](CCC(N)=O)C(=O)NCCNc1ccc([N+](=O)[O-])cc1[N+](=O)[O-]
The procedure:
as §1, §2, §3, §4, §5, §6, §7

Broadly, the Km is the substrate concentration at which the rate is half of its maximum. What is called kcat is the maximal rate divided by the concentration of active sites. What is called kcat/Km is the turnover number divided by the Michaelis constant.

B1: human recombinant secPHEX (Homo sapiens) (protein)
chain: SLQAKQEYCLKPECIEAAAAILSKVNLSVDPCDNFFRFACDGWISNNPIPEDMPSYGVYPWLRHNVDLKLKELLEKSISRRRDTEAIQKAKILYSSCMNEKAIEKADAKPLLHILRHSPFRWPVLESNIGPEGVWSERKFSLLQTLATFRGQYSNSVFIRLYVSPDDKASNEHILKLDQATLSLAVREDYLDNSTEAKSYRDALYKFMVDTAVLLGANSSRAEHDMKSVLRLEIKIAEIMIPHENRTSEAMYNKMNISELSAMIPQFDWLGYIKKVIDTRLYPHLKDISPSENVVVRVPQYFKDLFRILGSERKKTIANYLVWRMVYSRIPNLSRRFQYRWLEFSRVIQGTTTLLPQWDKCVNFIESALPYVVGKMFVDVYFQEDKKEMMEELVEGVRWAFIDMLEKENEWMDAGTKRKAKEKARAVLAKVGYPEFIMNDTHVNEDLKAIKFSEADYFGNVLQTRKYLAQSDFFWLRKAVPKTEWFTNPTTVNAFYSASTNQIRFPAGELQKPFFWGTEYPRSLSYGAIGVIVGHEFTHGFDNNGRKYDKNGNLDPWWSTESEEKFKEKTKCMINQYSNYYWKKAGLNVKGKRTLGENIADNGGLREAFRAYRKWINDRRQGLEEPLLPGITFTNNQLFFLSYAHVRCNSYRPEAAREQVQIGAHSPPQFRVNGAISNFEEFQKAFNCPPNSTMNRGMDSCRLW
notes: pure soluble form of PHEX (secPHEX); made in house
For B1, the Km was determined as 1.5 µM in data set [1], 15.0 µM in data set [2], 2.4 µM in data set [3] and 3.0 µM in data set [4]. The turnover number (kcat) was 0.04 s⁻¹ in data set [1], 0.02 s⁻¹ in data set [2], 0.3 s⁻¹ in data set [3] and 0.2 s⁻¹ in data set [4]. Besides, the kcat/Km is 26700 M⁻¹ s⁻¹ in data set [1], 1300 M⁻¹ s⁻¹ in data set [2], 125000 M⁻¹ s⁻¹ in data set [3] and 66700 M⁻¹ s⁻¹ in data set [4].
